Assay results: article PMC3281069

Target: E2 wild type, E2 subunit (acyltransferase component) of the pyruvate dehydrogenase complex of Geobacillus stearothermophilus (Geobacillus stearothermophilus) (UniProt P11961)
Test: SEC; E2wt on a Superdex200 gel filtration column in Solubility Buffer 2.2 (1x PBS, 50 mM L-glutamine, 50 mM NaCl, 250 mM L-arginine)

“E2 wild type, E2 subunit (acyltransferase component) of the pyruvate dehydrogenase complex of Geobacillus stearothermophilus (from UniProt P11961 1-428) (natural protein)” showed a stoichiometry N of 60.
